Patent publication US9205136B2, “Human aminoacyl-tRNA synthetase polypeptides useful for the regulation of angiogenesis” (THE SCRIPPS RESEARCH INSTITUTE, priority 2000, dated 2015)

B1: extended carboxyl-terminal domain: recombinant residues 344-528 of human full-length TyrRS (protein, UniProt P54577 344-528, looked up, fragment)
chain: PSKQKPMAKGPAKNSEPEEVIPSRLDIRVGKIITVEKHPDADSLYVEKIDVGEAEPRTVVSGLVQFVPKEELQDRLVVVLCNLKPQKMRGVESQGMLLCASIEGINRQVEPLDPPAGSAPGEHVFVKGYEKGQPDEELKPKKKVFEKLQADFKISEECIAQWKQTNFMTKLGSISCKSLKGGNIS
B2: truncated mini TyrRS: recombinant truncated mini TyrRS comprising residues 1-344 of human full-length TyrRS (protein, UniProt P54577 1-344, looked up, fragment)
chain: MGDAPSPEEKLHLITRNLQEVLGEEKLKEILKERELKIYWGTATTGKPHVAYFVPMSKIADFLKAGCEVTILFADLHAYLDNMKAPWELLELRVSYYENVIKAMLESIGVPLEKLKFIKGTDYQLSKEYTLDVYRLSSVVTQHDSKKAGAEVVKQVEHPLLSGLLYPGLQALDEEYLKVDAQFGGIDQRKIFTFAEKYLPALGYSKRVHLMNPMVPGLTGSKMSSSEEESKIDLLDRKEDVKKKLKKAFCEPGNVENNGVLSFIKHVLFPLKSEFVILRDEKWGGNKTYTAYVDLEKDFAAEVVHPGDLKNSVEVALNKLLDPIREKFNTPALKKLASAAYPDP
B3: NAP-2: human recombinant NAP-2 (Biosource International), α-chemokine (protein)
chain: AELRCMCIKTTSGIHPKNIQSLEVIGKGTHCNQVEVIATLKDGRKICLDPDAPRIKKIVQKKLAGDESAD
B4: S. cerevisiae TyrRS: S. cerevisiae tyrosyl-tRNA synthetase, NYR in place of ELR (protein)
chain: MSSAATVDPNEAFGLITKNLQEVLNPQIIKDVLEVQKRHLKLYWGTAPTGRPHCGYFVPMTKLADFLKAGCEVTVLLADLHAFLDNMKAPLEVVNYRAKYYELTIKAILRSINVPIEKLKFVVGSSYQLTPDYTMDIFRLSNIVSQNDAKRAGADVVKQVANPLLSGLIYPLMQALDEQFLDVDCQFGGVDQRKIFVLAEENLPSLGYKKRAHLMNPMVPGLAQGGKMSASDPNSKIDLLEEPKQVKKKINSAFCSPGNVEENGLLSFVQYVIAPIQELKFGTNHFEFFIDRPEKFGGPITYKSFEEMKLAFKEEKLSPPDLKIGVADAINELLEPIRQEFANNKEFQEASEKGYPVATPQKSKKAKKPKNKGTKYPGATKTNEIATKLEETKL
B5: EMAP II: human mature endothelial monocyte-activating polypeptide II, C-terminal His6 tag (protein)
chain: ANNDAVLKRLEQKGAEADQIIEYLKQQVSLLKEKAILQATLREEKKLRVENAKLKKEIEELKQELIQAEIQNGVKQIPFPSGTPLHANSMVSENVIQSTAVTTVSSGTKEQIKGGTGDEKKAKEKIEKKGEKKEKKQQSIAGSADSKPIDVSRLDLRIGCIITARKHPDADSLYVEEVDVGEIAPRTVVSGLVNHVPLEQMQNRMVILLCNLKPAKMRGVLSQAMVMCASSPEKIEILAPPNGSVPGDRITFDAFPGEPDKELNPKKKIWEQIQPDLHTNDECVATYKGVPFEVKGKGVCRAQTMSNSGIKHHHHHH

Legend:
chick CAM = assay: Inhibition of VEGF165-induced or mini TyrRS-induced angiogenesis in chick CAM; format: in vivo; conditions: 3 μg inhibitor
Procedure: In vivo angiogenesis assays were conducted in chick chorioallantoic membrane (CAM) (Nicolaou et al., 1998, Bioorg. Med. Chem. 6:1185-208). Ten-day-old chick embryos were purchased from Mcintyre Poultry (Lakeside, Calif.) and were incubated at 37° C. and 70% humidity. A small hole was made with a small crafts drill (Dremel, Emerson Electric, Racine, Wis.) directly over the air sac at the end of the egg. The embryos were candled to determine a location to drill a second hole directly over embryonic blood vessels. […] A window was cut in the eggshell over the dropped CAM, exposing the CAM to direct access for experimental manipulation. Cortisone acetate-treated 5 mm filter disks were soaked with a particular protein sample (25 ng of VEGF165 or 250 ng of a given TyrRS molecule) and the filter disks added directly to the CAMs, which were relatively devoid of preexisting blood vessels. The windows were sealed with sterile tape and incubated at 37° C. At 0, 24, and 48 hours following incubation, 3 μg of […] (IP-10) (R & D Systems, Minneapolis, Minn.) was topically applied to the filter disks. After 72 hours, the CAM tissue associated with the filter disk was harvested and quantified using a stereomicroscope. Angiogenesis was assessed as the number of visible blood vessel branch points within the defined area of the filter disks. Each determination shown in FIG. 17 represents the mean from 5-8 embryos.
The angiostatic activity of human full-length TrpRS and human mini TrpRS was also analyzed in in vivo angiogenesis assays conducted in chick CAM. In vivo angiogenesis assays were performed as described in Example 12 with 3 μg of full-length TrpRS or mini TrpRS added to VEGF165-induced or mini TyrRS-induced CAM tissue.

MPs = assay: MP chemotaxis assay (ChemoTX microchemotaxis chamber); format: cell-based, human; conditions: for MP migration induced by synthetic peptide: assay as in Example 2; for MP chemotaxis (MP migration): sample proteins 1 nM, 3 hours
Procedure: (§1) Cells for the various cytokine assays described were prepared from acid citrate dextrose-treated blood of normal healthy volunteers. Human PMNs were isolated from the blood by centrifugation (700×g) over Histopaque 1077 and 1119 (Sigma). […] This procedure was repeated twice. Human MPs were isolated by centrifugation on Histopaque 1077 (Sigma). The mononuclear fraction was obtained, washed twice in Hanks' balanced salt solution, resuspended in RPMI-1640 medium (Sigma) containing 10% heat-inactivated fetal bovine serum (Sigma), plated in tissue culture flasks, and incubated in a 6% CO2 incubator at 37° C. for 1-2 hours (Kumagai et al., 1979, J. Immunol. Methods 29:17-25). Nonadherent cells were removed by washing the flasks three times with Hanks' balanced salt solution, and adherent cells were harvested by incubation with calcium-magnesium free phosphate-buffered saline containing 2 mM EDTA for 15 minutes at 4° C., followed by extensive washing.
MP chemotaxis assays were performed in a ChemoTX microchemotaxis chamber (Neuro Probe, Gaithersburg, Md.) containing polycarbonate filters (5 μm pores) with polyvinylpyrrolidone (PVP). MPs were suspended in RPMI-1640 medium containing 1% heat-inactivated fetal bovine serum, and 10^4 cells were added to the upper chamber. Sample proteins (1 nM) were added to the lower compartment of chemotaxis chambers, and the chambers were incubated for 3 hours. After incubation, nonmigrating cells were removed, membranes were fixed in methanol, and migrating cells were visualized with the HEMACOLOR™ stain set (EM Diagnostic Systems, Gibbstown, N.J.). Migrating cells were counted in high-power fields (HPFs). Each determination shown in FIG. 2 represents the average of nine HPF measurements.

PMNs [1] = assay: PMN chemotaxis assay (ChemoTX microchemotaxis chamber); format: cell-based, human; conditions: for PMN migration induced by synthetic peptide: assay as in Example 2; for PMN chemotaxis (PMN migration): sample proteins 1 nM, 45 min
Procedure: as §1
PMN chemotaxis assays were performed in a ChemoTX microchemotaxis chamber (described herein). Sample proteins (1 nM) were added to the lower compartment of chemotaxis chambers, and 10^4 PMNs were added to the upper compartment. Chambers were incubated for 45 min, and migrating cells were counted in HPFs. Each determination shown in FIG. 2 represents the average of nine HPF measurements.

PMNs [2] = assay: 125I-human mini TyrRS binding and competition assay on PMNs; conditions: for inhibition of 125I-mini TyrRS binding to PMNs by unlabeled ligand: 10 nM 125I-mini TyrRS, 200-fold molar excess of unlabeled ligand, on ice 2 hours
Procedure: The interaction of human mini TyrRS and PMNs was examined in binding studies using radioiodinated TyrRS molecules (Moser et al., 1993, J. Biol. Chem. 268:7125-28). Custom radioiodination of mini TyrRS with was performed by Research & Diagnostic Antibody (Richmond, Calif.). In the binding assays, 2×10^6 PMNs were first suspended in 120 μl of RPMI-1640 medium containing 20 mM Hepes (pH 7.4) and 10 mg/ml bovine serum albumin. […] Following incubation, cells were separated from unbound radioactivity by centrifugation at approximately 8000×g for 2 minutes through 500 μL, of a 10% sucrose/phosphate-buffered saline (PBS) cushion. The supernatant was aspirated, and the cell sediment was resuspended using EcoLite (ICN Biomedicals, Irvine, Calif.) and analyzed in a scintillation counter.
Following incubation, cells were separated from unbound radioactivity as described herein.

Row | Molecule | MP migration induced by synthetic peptide (MPs; synthetic heptapeptides) | PMN migration induced by synthetic peptide (PMNs [1]; synthetic heptapeptides) | inhibition of 125I-mini TyrRS binding to PMNs by unlabeled ligand (PMNs [2]) | PMN chemotaxis (PMN migration) (PMNs [1]) | further results
1 | IP-10: angiostatic α-chemokine (R & D Systems) |  |  |  |  | inhibition of VEGF165-induced angiogenesis in chick CAM (chick CAM; 25 ng VEGF165, 72 hours): inhibited; inhibition of mini TyrRS-induced angiogenesis in chick CAM (chick CAM; 250 ng mini TyrRS, 72 hours): inhibited
2 | R-V-G-F-I-Q-K (RVGFIQK; listed as Saccharomyces cerevisiae) [synthetic peptide derived from S. cerevisiae Arc1p, reference compound] | neither peptide induced PMN or MP migration | neither peptide induced PMN or MP migration |  |  | 
3 | Gro: human recombinant Gro (Biosource International), α-chemokine |  |  | did not significantly inhibit the binding |  | 
4 | R-V-G-K-I-I-T (RVGKIIT; listed as Homo sapiens) [TyrRS carboxyl-terminal domain peptide, synthetic peptide derived from the TyrRS carboxyl-terminal domain] | MP migration | induced PMN migration |  |  | dose-dependence of peptide effect on MP migration (MPs; synthetic heptapeptides): dose-dependence similar to that of the mature EMAP II peptide; dose-dependence of peptide effect on PMN migration (PMNs [1]; synthetic heptapeptides): dose-dependence similar to that of the mature EMAP II peptide
5 | R-V-G-R-I-I-K (RVGRIIK; Caenorhabditis elegans) [synthetic peptide derived from C. elegans MetRS, reference compound] | neither peptide induced PMN or MP migration | neither peptide induced PMN or MP migration |  |  | 
6 | B1 |  |  |  | capable of can inducing both MP and PMN chemotaxis | MP chemotaxis (MP migration) (MPs): capable of can inducing both MP and PMN chemotaxis
7 | B2 |  |  |  | capable of functioning as a chemoattractant for PMNs | MP chemotaxis (MP migration) (MPs): not for MPs
8 | B3 |  |  | did not significantly inhibit the binding |  | 
9 | B4 |  |  | inhibited the binding | no chemotaxis was observed | dissociation constant relative to that for human mini TyrRS (PMNs [2]; PMN binding competition): ≤ 200 fold; PMN chemotaxis over a concentration series (PMNs [1]; 0.1, 1, 10, 100, and 1000 nM): No significant chemotaxis
10 | B5 |  |  | neither the TyrRS carboxyl-terminal domain nor EMAP II inhibited | induction of PMN migration | concentration dependence of PMN migration (PMNs [1]): bell-shaped concentration dependence
